Measurements taken from the supplement of paper PMC10724198.

Legend:
Saccharomyces cerevisiae [1] = assay: protein stability index of tFT-peptide fusion in wild type (PSI (0-1 scale)); higher = more stable (slower turnover); conditions: genetic background: wild type
Saccharomyces cerevisiae [2] = assay: protein stability index of tFT-peptide fusion in deletion strain of DOA10 (PSI (0-1 scale)); higher = more stable (slower turnover)
Procedure: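 MPS profiling in S. cerevisiae of two library types built from selected 12-aa C-degron peptides (IN1, IN2, LN1, LN3, VN2, R1-R5, W1-W3, Atg1 and Rpa12 C-termini): saturation mutagenesis libraries and C-terminal +1 capping libraries (13 aa). Each peptide is fused to the C-terminus of a sfGFP-mCherry timer, after a GGGS linker. Cells are FACS-sorted into 8 mCherry/sfGFP bins and sequenced. PSI runs from 0 (unstable) to 1 (stable), measured once in wild type and in the das1Δ or doa10Δ background.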
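Wherever protein stability index of tFT-peptide fusion in deletion strain of DOA10 is given: PSI per variant is the weighted mean of its sequencing read distribution over the sorted stability bins, counting only variants with over 10 reads summed across bins.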
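Wherever protein stability index of tFT-peptide fusion in wild type is given: PSI derived as read-weighted mean over the 8 sorting bins, only variants exceeding 10 total reads kept, mCherry placed adjacent to the peptide and sfGFP distal.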

Sequence | protein stability index (Saccharomyces cerevisiae [1]) | protein stability index (Saccharomyces cerevisiae [2])
LSLRVLLPLYFR | 0.311 | 0.616
RVTRLNAIYFRI | 0.229 | 0.496
RVTRLDAIYFRIR | 0.589 | 0.717
RVTRHDAIYFRI | 0.517 | 0.689
RSLRVLLPLWFR | 0.459 | 0.67
RSLRVLLPLYDR | 0.652 | 0.708
CLVSLAILLFFR | 0.248 | 0.351
CLVSTPILLFFR | 0.132 | 0.623
RSQRVLLPLYFR | 0.308 | 0.705
RSLRVLSPLYFR | 0.308 | 0.691
RVTRLDAIYFNI | 0.572 | 0.703
ARTLPMCPLLLR | 0.311 | 0.669
CLVSLPILLTFR | 0.0802 | 0.627
CLVSLPIQLFFR | 0.0792 | 0.658
CLKSLPILLFFR | 0.083 | 0.618
AITLPMCPLLLRW | 0.0872 | 0.621
GLYMCSVPCWFR | 0.646 | 0.682
AITLPMCPVLLR | 0.322 | 0.623
RSLPVLLPLYFR | 0.186 | 0.672
CLVSLPILLFFE | 0.454 | 0.57

Sequence | protein stability index (Saccharomyces cerevisiae [1]) | protein stability index (Saccharomyces cerevisiae [2])
GLYMCSVGCWCR | 0.334 | 0.45
ALVSLPILLFFR | 0.0758 | 0.653
AITLLMCPLLLR | 0.37 | 0.629
AITLPMCPLLLG | 0.509 | 0.544
CLLSLPILLFFR | 0.0527 | 0.571
AITLPMCPLLLE | 0.618 | 0.652
AITLPMCPLLFR | 0.27 | 0.669
RSLRVLLPLYFRN | 0.204 | 0.5
RVTRPDAIYFRI | 0.34 | 0.706
GLYMCQVGCWFR | 0.308 | 0.641
CLVSLIILLFFR | 0.298 | 0.363
MLVSLPILLFFR | 0.089 | 0.565
AITLKMCPLLLR | 0.296 | 0.624
AITLPMCPLLLRP | 0.281 | 0.636
RVTRLDAIYFRV | 0.342 | 0.63
CRVSLPILLFFR | 0.0571 | 0.62
RSLRVLDPLYFR | 0.556 | 0.721
RVTRLDPIYFRI | 0.462 | 0.707
AITLPMCPDLLR | 0.669 | 0.677
CLVSLEILLFFR | 0.211 | 0.262

Sequence | protein stability index (Saccharomyces cerevisiae [1]) | protein stability index (Saccharomyces cerevisiae [2])
RVTRLDAIYFHI | 0.491 | 0.527
KLYMCSVGCWFR | 0.349 | 0.654
AITLPMCILLLR | 0.091 | 0.603
RVTRLDAIYFRN | 0.6 | 0.676
CFVSLPILLFFR | 0.0595 | 0.579
GLYMCGVGCWFR | 0.335 | 0.682
CLVSLPILLFFH | 0.204 | 0.474
AITLPMCPLYLR | 0.135 | 0.675
RSLRVLLPLYGR | 0.595 | 0.642
CLVSLPILLEFR | 0.518 | 0.638
AITLPMCMLLLR | 0.133 | 0.651
CLVSLPILLFFI | 0.197 | 0.436
RVTRLDLIYFRI | 0.224 | 0.654
KVTRLDAIYFRI | 0.251 | 0.67
NITLPMCPLLLR | 0.359 | 0.664
AITLPMCPLSLR | 0.596 | 0.665
RVTRLDAIYLRI | 0.302 | 0.704
GLYMCSVGCWFI | 0.44 | 0.585
GLYMCSVGCWFM | 0.543 | 0.586
